Measurements: paper PMC2064680 (The Journal of Cell Biology, 2006)
Several values for one entry are separate records, joined by “and”; a condition that tells them apart may be missing. Identical values can stand only once. Blank lines part the entries; values can stand above or below the molecule they belong to.

Key:
[1] = target: ESCRT-I purified from E. coli (Vps23, Vps28, Vps37) (yeast) (UniProt P25604); assay: cross-linking
[2] = target: T1, ESCRT-I purified from E. coli (Vps23, Vps28, Vps37) (yeast, UniProt P25604 1-385; Q02767 1-242; Q99176 1-213)
T1 sequence (looked up) 1: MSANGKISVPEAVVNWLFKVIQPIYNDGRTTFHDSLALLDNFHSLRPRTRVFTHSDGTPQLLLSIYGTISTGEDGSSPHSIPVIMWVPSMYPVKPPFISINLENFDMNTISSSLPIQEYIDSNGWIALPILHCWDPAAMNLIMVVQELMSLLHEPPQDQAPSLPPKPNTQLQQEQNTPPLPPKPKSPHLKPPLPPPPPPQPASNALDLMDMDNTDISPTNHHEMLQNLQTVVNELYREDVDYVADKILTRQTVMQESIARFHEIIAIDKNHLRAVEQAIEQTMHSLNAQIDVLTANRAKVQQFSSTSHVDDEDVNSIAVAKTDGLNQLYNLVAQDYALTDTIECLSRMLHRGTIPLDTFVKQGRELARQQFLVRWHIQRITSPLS
T1 sequence (looked up) 2: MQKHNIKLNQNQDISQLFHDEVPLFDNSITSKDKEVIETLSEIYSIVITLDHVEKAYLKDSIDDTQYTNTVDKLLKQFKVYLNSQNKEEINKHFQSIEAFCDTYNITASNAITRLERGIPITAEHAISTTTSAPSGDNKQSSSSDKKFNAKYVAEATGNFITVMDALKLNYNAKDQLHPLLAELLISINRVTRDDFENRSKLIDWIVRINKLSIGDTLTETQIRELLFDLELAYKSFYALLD
T1 sequence (looked up) 3: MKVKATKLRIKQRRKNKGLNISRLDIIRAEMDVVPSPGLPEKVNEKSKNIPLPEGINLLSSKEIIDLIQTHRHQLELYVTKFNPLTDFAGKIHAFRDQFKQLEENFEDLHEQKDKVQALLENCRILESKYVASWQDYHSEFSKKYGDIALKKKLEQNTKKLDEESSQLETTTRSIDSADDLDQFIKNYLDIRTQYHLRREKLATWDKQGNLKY

- stoichiometry N [1]: 2 and 3
Molecule: ESCRT-I purified from E. coli (Vps23, Vps28, Vps37) (from UniProt P25604 1-385; Q02767 1-242; Q99176 1-213) (complex)

- stoichiometry N [2]: 1
B1: Mvb12, E. coli-expressed (unpublished in vitro analyses) (natural protein, yeast, UniProt P42939 1-101, looked up)
chain: MNNNVEELLRRIPLYNKYGKDFPQETVTRFQMPEFKLPALQPTRDLLCPWYEECDNITKVCQLHDSSNKKFDQWYKEQYLSKKPPGIVGNTLLSPSRKDNS
